In PMC11407943, “Cdc14 phosphatases use an intramolecular pseudosubstrate motif to stimulate and regulate catalysis” (The Journal of Biological Chemistry, 2024):
Starred links: 1 amine or outer side, 2 acyl side, 3 side chain; linkers in the order of their positions; H or OH if unused. Non-standard residues stand in square brackets, D forms with d. No end group written: not given here. pCF2‑Ser = (α,α-difluoromethylene)phosphonoserine, O=C([C@H](CC(F)(F)P(=O)(O)O)N[*:1])[*:2]

Key:
ScCdc14^P433A/K435A = target: T1, ScCdc14^P433A/K435A (S. cerevisiae, UniProt Q00684 1-449, P433A | K435A); conditions: both partners purified
T1 construct: source: E. coli, purified (HisTrap nickel sepharose)
T1 sequence (looked up): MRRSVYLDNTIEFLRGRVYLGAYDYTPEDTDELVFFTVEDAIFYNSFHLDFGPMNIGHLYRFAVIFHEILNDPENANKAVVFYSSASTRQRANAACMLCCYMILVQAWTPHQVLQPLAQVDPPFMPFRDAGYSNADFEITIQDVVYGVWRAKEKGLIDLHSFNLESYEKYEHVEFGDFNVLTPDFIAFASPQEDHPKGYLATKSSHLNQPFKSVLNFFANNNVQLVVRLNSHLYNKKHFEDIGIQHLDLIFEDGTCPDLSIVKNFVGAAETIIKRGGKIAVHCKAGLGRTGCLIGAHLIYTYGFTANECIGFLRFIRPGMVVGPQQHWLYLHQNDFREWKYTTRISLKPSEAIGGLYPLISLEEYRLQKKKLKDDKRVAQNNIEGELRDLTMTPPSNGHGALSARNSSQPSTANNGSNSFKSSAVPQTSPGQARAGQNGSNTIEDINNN

ScCdc14^1-449 = target: T2, ScCdc14^1-449 (S. cerevisiae, UniProt Q00684 1-449); conditions: both partners purified
T2 construct: Expressed from pDEST17; also called Saccharomyces cerevisiae Cdc14 truncation that retains the SLiCE motif; source: E. coli, purified (HisTrap nickel sepharose)
T2 sequence (looked up): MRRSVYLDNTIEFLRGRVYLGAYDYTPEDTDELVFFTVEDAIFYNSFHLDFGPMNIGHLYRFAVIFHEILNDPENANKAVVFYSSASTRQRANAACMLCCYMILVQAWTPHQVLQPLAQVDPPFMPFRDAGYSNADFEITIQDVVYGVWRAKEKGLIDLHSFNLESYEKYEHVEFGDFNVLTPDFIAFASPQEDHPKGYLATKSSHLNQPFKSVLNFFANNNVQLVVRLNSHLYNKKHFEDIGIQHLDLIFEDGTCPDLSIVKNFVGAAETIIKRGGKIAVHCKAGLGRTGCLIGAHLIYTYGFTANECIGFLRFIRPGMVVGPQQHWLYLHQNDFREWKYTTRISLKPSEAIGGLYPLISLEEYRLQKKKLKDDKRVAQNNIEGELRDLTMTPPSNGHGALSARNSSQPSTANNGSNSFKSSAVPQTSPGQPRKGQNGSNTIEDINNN

**Q.** For EV[pCF2‑Ser]PTKR [EV(pCF2-Ser)PTKR], which Kd (ScCdc14^P433A/K435A) is on record?
**A.** 13 ± 4 µM

**Q.** What about the Kd (ScCdc14^1-449) of the same binder?
**A.** 6 ± 2 µM
